The values that follow come from publication PMC9535869, “A novel nuclear receptor subfamily enlightens the origin of heterodimerization”.

Conditions in all cases: protein: recombinant; tags: His6 tag, cleaved by thrombin; chain copies: 2
Data set [1] has as its target T1, NR7 deltaA/B (called full-length NR7), homodimer (Branchiostoma lanceolatum, UniProt A0A6B9UN24 30-389). The data set is described as follows: SEC-nMS; homodimer on DNA, 102405 Da; Oligos annealed in 10 mM Tris-HCl pH 8.0, 100 mM NaCl, 0.1 mM EDTA; protein dimer:DNA 1:1.2; native 8% PAGE in 60 mM Tris/40 mM CAPS pH 9.4, pre-run at 4 C; SEC-nMS buffer not given in the material.

For data set [2], the target named is T1, NR7 deltaA/B (called full-length NR7), …. The data set can be described thus: SEC-nMS; Oligos annealed in 10 mM Tris-HCl pH 8.0, 100 mM NaCl, 0.1 mM EDTA; protein dimer:DNA 1:1.2; native 8% PAGE in 60 mM Tris/40 mM CAPS pH 9.4, pre-run at 4 C; SEC-nMS buffer not given in the material.
Data set [3] shares this target. The data set can be described thus: SEC-nMS; NR7 and RXR mixture; Oligos annealed in 10 mM Tris-HCl pH 8.0, 100 mM NaCl, 0.1 mM EDTA; protein dimer:DNA 1:1.2; native 8% PAGE in 60 mM Tris/40 mM CAPS pH 9.4, pre-run at 4 C; SEC-nMS buffer not given in the material.

T1 sequence (A0A6B9UN24 entry or part of it mutant): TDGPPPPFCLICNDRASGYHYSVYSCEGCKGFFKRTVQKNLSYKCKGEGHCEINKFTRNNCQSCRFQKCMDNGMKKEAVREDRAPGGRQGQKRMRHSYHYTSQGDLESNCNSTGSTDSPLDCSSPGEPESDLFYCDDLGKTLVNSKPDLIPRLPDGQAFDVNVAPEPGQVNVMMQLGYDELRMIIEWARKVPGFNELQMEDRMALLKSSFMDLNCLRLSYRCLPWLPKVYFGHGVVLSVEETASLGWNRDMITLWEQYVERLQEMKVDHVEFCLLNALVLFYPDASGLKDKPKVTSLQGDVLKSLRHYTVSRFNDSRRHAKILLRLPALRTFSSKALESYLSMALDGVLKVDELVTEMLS

B1: DR0 (dsDNA)
DNA 1: GATTTGAGGTCAAGGTCACACAGTTA
DNA 2: TAACTGTGTGACCTTGACCTCAAATC
Take B1: in data set [1], the binding result was “binds”.

B2: DR4 (dsDNA)
DNA 1: ATTTGAGGTCACAGGAGGTCACACAG
DNA 2: CTGTGTGACCTCCTGTGACCTCAAAT
For the molecule B2, the binding result in data set [2] was “binds”.

B3: DR1 (dsDNA)
DNA 1: GATTTGAGGTCAGAGGTCACACAGTT
DNA 2: AACTGTGTGACCTCTGACCTCAAATC
Regarding B3, the binding result in data set [2] is given as “binds”.

B4: IR3 (dsDNA)
DNA 1: GATTTGAGGTCACAGTGACCTCACAG
DNA 2: CTGTGAGGTCACTGTGACCTCAAATC
For the molecule B4, in data set [3], the binding result is reported as “binds”.
